# According to US9115383B2, “Fluorescence assay for ghrelin O-acyltransferase activity” (Syracuse University, priority 2012, dated 2015):
# No end group written: not given here. *: point of attachment. acrylodan = acrylodan label (AcDan) on Cys, CN(C)c1ccc2cc(C(=O)CC*)ccc2c1; Dansyl = CN(C)c1cccc2c(S(=O)(=O)*)cccc12
# Target: T1, hGOAT (Homo sapiens, UniProt Q96T53)
# T1 construct: the gene for hGOAT was cloned with a C-terminal His10 tag into the pFastBacDual vector; His10 (C); made in house; host or cells: Sf9 insect cells, baculovirus (pFastBacDual); used as membrane fraction
# T1 sequence (Q96T53 1-435): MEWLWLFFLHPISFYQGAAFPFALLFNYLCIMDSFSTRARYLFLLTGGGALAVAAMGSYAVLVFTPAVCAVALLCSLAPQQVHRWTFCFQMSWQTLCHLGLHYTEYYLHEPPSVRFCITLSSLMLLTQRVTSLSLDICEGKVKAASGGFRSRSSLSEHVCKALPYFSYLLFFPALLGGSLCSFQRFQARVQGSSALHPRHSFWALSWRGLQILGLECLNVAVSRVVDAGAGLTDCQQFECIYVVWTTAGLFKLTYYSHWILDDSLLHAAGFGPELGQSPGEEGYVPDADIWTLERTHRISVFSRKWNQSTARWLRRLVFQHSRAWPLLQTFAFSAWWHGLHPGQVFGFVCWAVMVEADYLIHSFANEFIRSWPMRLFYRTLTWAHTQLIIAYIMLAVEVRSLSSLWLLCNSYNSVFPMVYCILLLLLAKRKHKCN
# Assay: hGOAT-catalysed octanoylation of fluorescent ghrelin peptide substrates, RP-HPLC with fluorescence detection
# Type: biochemical
# Settings: for modification (octanoylation) by hGOAT: RP-HPLC with fluorescence detection, hGOAT-His10 membranes vs mock membranes; for Active with hGOAT?: peptide tested as substrate, hGOAT-His10 membranes in parallel with mock membranes; for activity with hGOAT (substrate selectivity at N-terminus, G1 and S2): ghrelin mimic peptide mutants, FIG. 5
# Description: FIG. 3 is a schematic of ghrelin peptide acylation reactions with the fluorescent GSSFLCAcDan substrate, where (A) is a reaction with control/mock membrane fraction; (B) is a time course for GSSFLCAcDan acylation using GOAT membrane fraction, and where the assays were incubated for 1-10 minutes at 37° C. and all reactions were analyzed using reverse-phase HPLC under the following assay conditions: 10 μM peptide, 50 μg membrane protein, 500 μM octanoyl coenzyme A, 100 μM palmitoyl coenzyme A, 50 mM HEPES buffer pH 7.0.
# In order to test the activity of peptide substrates, the gene for hGOAT was cloned with a C-terminal His10 tag into the pFastBacDual vector and expressed using standard baculoviral procedures.
# With the peptide substrates, the addition of the hydrophobic octanoyl group upon serine acylation at position 3 leads to an increase in retention time in reverse-phase (RP) HPLC. The panel of fluorescent ghrelin peptide substrates was assayed for activity with hGOAT using HPLC coupled with fluorescence detection of the fluorescently labeled peptides. All reactions with hGOAT-His 10 membranes were performed in parallel with mock membranes to account for nonspecific peptide modifications.
# An assay for human ghrelin O-acyltransferase activity was performed using hGOAT expressed from insect (Sf9) cells using standard baculoviral methods and a fluorescent 6-mer peptide synthesized by a single step reaction followed by high performance liquid chromatography (HPLC) purification. The assay was performed at room temperature using hGOAT membrane protein, octanoyl-CoA, a fluorescent ghrelin peptide, a buffer, and a detergent. Activity may be measure by detecting the presence of any octanoylation of the ghrelin peptide. For example, the presence of octanoylated ghrelin peptide may be confirmed by HPLC or by using a fluorescent system whose fluorescence will increase as a result of octanoylation of the ghrelin peptide.
Active with hGOAT?,"activity with hGOAT (substrate selectivity at N-terminus, G1 and S2)",Substance,modification (octanoylation) by hGOAT
No,–,"Dansyl-GSSFLS (SEQ. ID No. 2) (ends and bridges not checked) [Substrate 1-Dansyl, ghrelin mimic peptide with N-terminal dansyl fluorophore]",not modified by hGOAT
No,–,"GCAcDanSFLS (SEQ. ID No. 3) (GC(acrylodan)SFLS; ends and bridges not checked) [AcDan-2, ghrelin mimic peptide with acrylodan on cysteine at position 2]",not modified by hGOAT
Yes,–,"GSSFCAcDanS (SEQ. ID No. 4) (GSSFC(acrylodan)S; ends and bridges not checked) [AcDan-5, ghrelin mimic peptide with acrylodan on cysteine at position 5]",yielded the octanoylated peptide with increased retention time
Yes,–,GSSFLCAcDan (SEQ. ID No. 5) [AcDan-6],yielded the octanoylated peptide with increased retention time
–,low activity,[Ac]GSSFLC (SEQ. ID No. 1),–
–,no activity,[Ac]SSFLC (SEQ. ID No. 6) (Ac-SSFLC; not fully specified; ends and bridges not checked) [N-terminally acetylated ghrelin mimic peptide lacking G1],–
